Measured values published in US20130095092A1.

Biological target: Mannose 6-phosphate receptor (M6P receptor) on human MPS IIIB (NaGlu deficient) fibroblasts (human), P11717
Assay: cell-based or functional assay

Chain of Mannose 6-phosphate receptor (M6P receptor) on human MPS IIIB (NaGlu deficient) fibroblasts (human), P11717 (P11717 41-2491): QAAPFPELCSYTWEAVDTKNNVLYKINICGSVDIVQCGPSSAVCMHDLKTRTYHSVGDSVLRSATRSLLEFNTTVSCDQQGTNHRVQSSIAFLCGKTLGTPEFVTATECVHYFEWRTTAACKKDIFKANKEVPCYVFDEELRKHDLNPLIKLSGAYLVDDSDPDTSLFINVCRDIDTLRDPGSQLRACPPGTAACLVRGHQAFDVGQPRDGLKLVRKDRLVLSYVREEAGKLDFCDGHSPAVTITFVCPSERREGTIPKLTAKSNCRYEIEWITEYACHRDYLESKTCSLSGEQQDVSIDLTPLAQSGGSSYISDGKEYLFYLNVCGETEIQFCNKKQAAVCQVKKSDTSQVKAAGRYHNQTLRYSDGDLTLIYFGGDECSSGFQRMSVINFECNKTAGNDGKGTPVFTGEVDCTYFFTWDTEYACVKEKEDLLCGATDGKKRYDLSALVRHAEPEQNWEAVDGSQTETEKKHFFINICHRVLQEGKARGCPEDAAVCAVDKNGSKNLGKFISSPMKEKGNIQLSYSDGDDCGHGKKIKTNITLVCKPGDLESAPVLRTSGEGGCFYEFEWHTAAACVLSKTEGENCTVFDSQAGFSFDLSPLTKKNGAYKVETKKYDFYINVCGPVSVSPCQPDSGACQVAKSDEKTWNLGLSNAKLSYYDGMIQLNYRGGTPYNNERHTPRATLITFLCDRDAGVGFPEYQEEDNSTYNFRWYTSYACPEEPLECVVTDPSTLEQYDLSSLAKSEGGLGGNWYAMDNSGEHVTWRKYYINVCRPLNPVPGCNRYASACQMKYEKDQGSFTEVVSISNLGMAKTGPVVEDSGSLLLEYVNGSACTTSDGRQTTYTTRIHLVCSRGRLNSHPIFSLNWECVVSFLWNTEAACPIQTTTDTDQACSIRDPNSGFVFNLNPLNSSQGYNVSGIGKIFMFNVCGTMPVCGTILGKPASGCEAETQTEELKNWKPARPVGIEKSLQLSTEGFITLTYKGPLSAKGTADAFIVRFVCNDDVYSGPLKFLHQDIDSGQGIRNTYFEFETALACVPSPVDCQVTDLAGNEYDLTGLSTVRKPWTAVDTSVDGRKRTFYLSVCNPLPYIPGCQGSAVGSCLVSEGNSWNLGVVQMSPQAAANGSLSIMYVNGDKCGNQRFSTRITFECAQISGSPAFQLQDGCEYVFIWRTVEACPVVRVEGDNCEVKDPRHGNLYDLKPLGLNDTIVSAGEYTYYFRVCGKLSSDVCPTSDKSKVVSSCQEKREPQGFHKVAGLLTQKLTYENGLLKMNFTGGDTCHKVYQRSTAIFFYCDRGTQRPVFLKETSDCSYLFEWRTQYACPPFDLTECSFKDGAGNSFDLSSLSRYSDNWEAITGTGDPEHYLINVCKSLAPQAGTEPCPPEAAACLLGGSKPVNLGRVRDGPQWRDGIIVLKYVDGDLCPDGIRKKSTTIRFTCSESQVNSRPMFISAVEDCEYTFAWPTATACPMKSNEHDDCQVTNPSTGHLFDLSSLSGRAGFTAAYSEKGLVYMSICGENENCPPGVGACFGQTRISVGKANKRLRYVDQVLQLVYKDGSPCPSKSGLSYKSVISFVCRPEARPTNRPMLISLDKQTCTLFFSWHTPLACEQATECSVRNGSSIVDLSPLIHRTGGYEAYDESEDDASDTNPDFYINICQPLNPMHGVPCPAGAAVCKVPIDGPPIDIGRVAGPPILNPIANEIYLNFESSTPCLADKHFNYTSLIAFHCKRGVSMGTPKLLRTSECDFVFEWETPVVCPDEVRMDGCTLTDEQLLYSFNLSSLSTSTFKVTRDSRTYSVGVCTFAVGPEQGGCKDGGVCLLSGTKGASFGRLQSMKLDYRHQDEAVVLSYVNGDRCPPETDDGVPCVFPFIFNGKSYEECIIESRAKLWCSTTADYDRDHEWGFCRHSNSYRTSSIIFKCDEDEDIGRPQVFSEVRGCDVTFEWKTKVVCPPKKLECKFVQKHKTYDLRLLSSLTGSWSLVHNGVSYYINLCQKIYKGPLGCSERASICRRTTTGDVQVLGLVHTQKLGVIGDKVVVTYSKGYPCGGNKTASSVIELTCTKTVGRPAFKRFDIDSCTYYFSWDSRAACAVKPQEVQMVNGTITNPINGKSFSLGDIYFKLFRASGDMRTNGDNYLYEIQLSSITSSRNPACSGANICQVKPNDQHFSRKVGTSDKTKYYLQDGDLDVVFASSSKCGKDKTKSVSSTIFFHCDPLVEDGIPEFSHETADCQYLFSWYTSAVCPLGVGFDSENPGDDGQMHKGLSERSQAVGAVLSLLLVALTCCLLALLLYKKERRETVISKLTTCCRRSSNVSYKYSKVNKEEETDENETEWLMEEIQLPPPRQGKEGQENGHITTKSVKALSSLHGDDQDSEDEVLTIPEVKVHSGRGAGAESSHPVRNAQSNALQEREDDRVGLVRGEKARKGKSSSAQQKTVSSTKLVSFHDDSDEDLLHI

M6P inhibition assay: concentration of free M6P monosaccharide that inhibits uptake of 30 µg/mL rhNaGlu into MPS IIIB fibroblasts (enzymatic activity): > 0.03 mM
M6P inhibition assay: inhibition of cellular uptake of 30 µg/mL rhNaGlu into MPS IIIB fibroblasts by 1 mM free M6P (% inhibition of uptake): > 90
NaGlu activity in MPS IIIB fibroblasts after 24 h uptake of rhNaGlu, relative to wild-type fibroblasts (% of wild-type activity): 50
B1: recombinant human N-acetyl-alpha-D-glucosaminidase (rhNaGlu) produced from a transgenic avian (Gallus), P54802 24-743 (enzyme)
chain: DEAREAAAVRALVARLLGPGPAADFSVSVERALAAKPGLDTYSLGGGGAARVRVRGSTGVAAAAGLHRYLRDFCGCHVAWSGSQLRLPRPLPAVPGELTEATPNRYRYYQNVCTQSYSFVWWDWARWEREIDWMALNGINLALAWSGQEAIWQRVYLALGLTQAEINEFFTGPAFLAWGRMGNLHTWDGPLPPSWHIKQLYLQHRVLDQMRSFGMTPVLPAFAGHVPEAVTRVFPQVNVTKMGSWGHFNCSYSCSFLLAPEDPIFPIIGSLFLRELIKEFGTDHIYGADTFNEMQPPSSEPSYLAAATTAVYEAMTAVDTEAVWLLQGWLFQHQPQFWGPAQIRAVLGAVPRGRLLVLDLFAESQPVYTRTASFQGQPFIWCMLHNFGGNHGLFGALEAVNGGPEAARLFPNSTMVGTGMAPEGISQNEVVYSLMAELGWRKDPVPDLAAWVTSFAARRYGVSHPDAGAAWRLLLRSVYNCSGEACRGHNRSPLVRRPSLQMNTSIWYNRSDVFEAWRLLLTSAPSLATSPAFRYDLLDLTRQAVQELVSLYYEEARSAYLSKELASLLRAGGVLAYELLPALDEVLASDSRFLLGSWLEQARAAAVSEAEADFYEQNSRYQLTLWGPEGNILDYANKQLAGLVANYYTPRWRLFLEALVDSVAQGIPFQQHQFDKNVFQLEQAFVLSKQRYPSQPRGDTVDLAKKIFLKYYPRWVAGSW
modifications: here or on the partner: glycosylated; glycans carry mannose-6-phosphate (3.2 moles of M6P per mole of protein), glycosylation sites not stated
